Here are results for 26 sequences from the supplement of paper PMC9170038.

The subject of the data set is MS2 coat protein. As to the kind of experiment: apparent KD of MS2 coat protein; higher = weaker reporter binding. The following applies: Eterna round: R107. As to the method: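 RNA-MaP round R107: designed RNA switches with theophylline, tryptophan, arginine or FMN aptamers are transcribed on-chip within common flanks. They are titrated with SNAP-549-labelled MS2 coat protein in RNA-MaP buffer (100 mM Tris pH 7.5, 80 mM KCl, 4 mM MgCl2), without ligand or with the indicated ligand. Median apparent KD per design.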

[1] abbreviates: input ligand: theophylline 20 uM.
[2] abbreviates: input ligand: theophylline 2 mM.
Setting [3] is: input ligand: tryptophan 2.4 mM.

As to “AACAUGAGGAUCACCCAUGUGUCCUCGAAACGAGGACCGGUACGGCCGCCACUCGAAAGGUGUUGACGAAAAGUCAGCACCAAAA [Mat - Exclusion - Trytophan A - D15]”, the “apparent KD of MS2 coat protein” value is, setting by setting: (input ligand: arginine 13.2 mM) 122 nM; under setting [1], 351 nM; under setting [2], 412 nM.
Taken in the same sequence, the figures for “AACAUGAGGAUCACCCAUGUGUCCUCGAAACGAGGACCGGUACGGCCGCCACUCGAAAUAAGCUGUUGACGAAAAGUCAGCAGCA [Mat - Exclusion - Trytophan A - D20]” were 128 nM, 300 nM and 345 nM.
For “AACAUGAGGAUCACCCAUGUGUCCUCGAAACGAGGACCGGUACGGCCGCCACUCGAAUAAGCUGUUGACGAAAAGUCAGCAGCAA [Mat - Exclusion - Trytophan A - D19]”, the “apparent KD of MS2 coat protein” value is 91 nM (input ligand: arginine 13.2 mM), 327 nM under setting [1] and 314 nM under setting [2].
On to “AACAUGAGGAUCACCCAUGUUCUCGUGUACCGAGGACCGGUACGGCCGCCACUCGGUUCUCGCGAGGAUGGUCAAAGACUAUCCA [Omei Trp A SS B v5]”, for which the “apparent KD of MS2 coat protein” value is 22.6 nM (input ligand: arginine 13.2 mM), 25.1 nM under setting [1] and 24.7 nM under setting [2].
In the case of “AACAUGAGGGCGGCCGCCACUCCAUGAACAUGAGGAUCACCCAUGUUGAGGAUCACCCAUGUUGUGAGGACCGGGCCACAUGAGG [Exclusion Tryptophan B 3]”, the “apparent KD of MS2 coat protein” value reads like this: (input ligand: arginine 13.2 mM) 31.7 nM; (input ligand: none) 38 nM; under setting [1], 66.1 nM; under setting [2], 59.8 nM; under setting [3], 89.6 nM.
Consider “AACGGUCGUACCGGAAUGAUCCUCAUGUAACGAGGACCGGUACGGCCGCCACUCGAUAACAUGAGGAUCACCCAUGUAAUAAUAA [|T'-M'-Trp-Ms2|_Design11]”, for which the “apparent KD of MS2 coat protein” value by setting is: (input ligand: arginine 13.2 mM) 18.8 nM; under setting [1], 17 nM; under setting [2], 17.2 nM.
“AACGUGAACGUGGUAUACCCGUGUGCCGAAGGAGCGCCCGAAAGGGCAGGUAGGUCGCGGACGACAUGAGGAUCACCCAUGUUUG”: the “apparent KD of MS2 coat protein” value was found to be 42 nM (input ligand: arginine 13.2 mM); 73.5 nM (input ligand: none); 97.2 nM under setting [1]; 87.5 nM under setting [2]; 57.7 nM under setting [3].
On to “AACUGGAAAAGUGAUACCAGAGACAUGAGGAUCACCCAUGUACAUGAGGAUCACCCAUGUCUCCCUUGGCAGCACAAAAGGGAGA [Exclusion Theophylline B Gf11]”, for which the “apparent KD of MS2 coat protein” value (input ligand: arginine 13.2 mM) came out at 16.1 nM, the “apparent KD of MS2 coat protein” value under setting [1] was 37.6 nM and the “apparent KD of MS2 coat protein” value under setting [3] is 24.5 nM.
Take “AAGACGCCGGGAAGGAGCGCAUCCAAACCACACAUGAGGAUCACCCAUGUAUAAAUAUGCAUGCAGGUAGGUCGCCCGAUGUCCC [Orbemative]”: the “apparent KD of MS2 coat protein” value by setting is: (input ligand: arginine 13.2 mM) 32.4 nM; (input ligand: none) 31.6 nM; under setting [1], 48.8 nM; under setting [2], 42.6 nM; under setting [3], 36.5 nM.
For the sequence “AAGGUGAUCCCAGAUACCAGCUUAACAUGAGGAUCACCCAUGUUUGGGACGAAAGUCCCGGGCCCUUGGCAGCUGGGUUGCCAAG [SSTheo B #18]”, the “apparent KD of MS2 coat protein” value runs as follows: (input ligand: arginine 13.2 mM) 61.9 nM; under setting [1], 402 nM; under setting [3], 174 nM.
For “AAGUGGCACGGAAGGAGCGAGUUUACCUAGAUAACAUGAGGAUCACCCAUGUAUAAUGGGACUCAGGUAGGUCGCCGUUGUCACU [#29 Same State - Arginine B]”, the “apparent KD of MS2 coat protein” value was determined as 24.9 nM (input ligand: arginine 13.2 mM); 34.8 nM (input ligand: none); 51 nM under setting [1]; 32.8 nM under setting [2]; 30.7 nM under setting [3].
For “AAUAAAUCACAUGAGGAUCACCCAUGUGAUACCAGCCUGGAAACAGGCCCUUGGCAGCACAUGAGGAUCACCCAUGUGCUAAAUA [TheoAX 1 #DoubleMS2 #OpenEnded]”, the “apparent KD of MS2 coat protein” value by setting is: (input ligand: arginine 13.2 mM) 6.79 nM; under setting [1], 8.81 nM; under setting [3], 8.43 nM.
Taken in the same sequence, the figures for “AAUAACAUGAGGAUCACCCAUGUAAAAGAUACCAGAGUGAUGAUCCUCCCUUGGCAGCUUAAUAACGCUAUUGGAAACAAUAGCG [Mat - Same State Theophlline A - Mod of Eli - D7]” were 34.9 nM, 158 nM and 59 nM.
In the case of “AAUAACAUGAGGAUCACCCAUGUAAAAGAUACCAGAUGCAUGAUGAUCCCUUGGCAGCUUAACGCUGAUUGAUUACAAUCAGCGA”, the “apparent KD of MS2 coat protein” value by setting is: (input ligand: arginine 13.2 mM) 36.5 nM; under setting [1], 128 nM; under setting [3], 26.4 nM.
With “AAUACAUGAGGAUCACCCAUGUAAGCUGAAGGAGCGCUGGAAACAGCAGGUAGGUCGCAGCUGCGACCUUGGUGAUCUAGGUCGC [(M1)-(M2)-(Arg1)-(Arg2)-(A)'-(M)'-(A)''_Design7]”, the “apparent KD of MS2 coat protein” value reads like this: (input ligand: arginine 13.2 mM) 17.5 nM; (input ligand: none) 36.6 nM; under setting [1], 35.8 nM; under setting [2], 46.7 nM; under setting [3], 24.3 nM.
As for “AAUACCGGAUCGGCCGCCACUGGUUGGCCCUGUGUACAUGAGGAUCACCCAUGUCCAUCCCAAACCAGGACCGGGAUCUUUGUGC [Ededmate]”, the “apparent KD of MS2 coat protein” value worked out at 11.7 nM (input ligand: arginine 13.2 mM), 15.8 nM under setting [1] and 13.7 nM under setting [2].
As to “AAUAGCUUGAGGAUCACCCAAGUAAAAGAUACCAGAGUGAUGAUCCUCCCUUGGCAGCUUAACGCUGAUUGAUUACAAUCAGCGA”, the “apparent KD of MS2 coat protein” value runs as follows: (input ligand: arginine 13.2 mM) 46.5 nM; (input ligand: none) 33.8 nM; under setting [1], 93.9 nM; under setting [2], 106 nM; under setting [3], 35.1 nM.
Take “AAUAUAAAAUAAAGAAAAUUUAUAUCUGAUACCAGACUCUCAUGGGUCCCUUGGCAGCAGUAACAUGAGGAUCACCCAUGUAUUA [JR_Nu_SSTheophyA_Sub026]”: the “apparent KD of MS2 coat protein” value (input ligand: arginine 13.2 mM) was determined as 67.7 nM, the “apparent KD of MS2 coat protein” value under setting [1] was 70.6 nM and the “apparent KD of MS2 coat protein” value under setting [3] was 123 nM.
For “AAUCGGACUCGUACAGCAUGUUGAGCGGAAGGAGCGGCGAAAGAGCCAGGUAGGUCGCCGCCGACAUGAGGAUCACCCAUGUACG [Orenti]”, the “apparent KD of MS2 coat protein” value by setting is: (input ligand: arginine 13.2 mM) 27.3 nM; (input ligand: none) 119 nM; under setting [1], 177 nM; under setting [2], 258 nM; under setting [3], 110 nM.
For “AAUCGGAGAUGAAGGAGCGCGUACAUGAGGAUCACCCAUGUAUCAAAGCUUCUCCCGUGUAUGCAGGUAGGUCGCAUUUCCACGU [Ceriedan]”, the “apparent KD of MS2 coat protein” value was found to be 10.1 nM (input ligand: arginine 13.2 mM); 9.12 nM (input ligand: none); 13 nM under setting [1]; 9.18 nM under setting [2]; 9.9 nM under setting [3].
Taken in the same sequence, the figures for “AAUCGGGAUGGUCAAGGGUAUGCUAUAGAUACCAGUGCAGAGAAACACCCUUGGCAGCUGUGGAACAUGAGGAUCACCCAUGUAG [Theo A Ex t4]” were 17.2 nM, 11.2 nM, 22.7 nM, 17.3 nM and 11.1 nM.
In the case of “AAUCGUAAGGCGGCCGCCACUACACAUGAGGAUCACCCAUGUCUCGCGGGCUUGCGUUGGGAUUGUAGGACCGGGCCAGUAAUAA [Exclusion - Tryptophan B (Freestyle 12)]”, the “apparent KD of MS2 coat protein” value turned out to be 19.3 nM (input ligand: arginine 13.2 mM); 26.4 nM (input ligand: none); 37.9 nM under setting [1]; 23.5 nM under setting [2]; 21.3 nM under setting [3].
As for “AAUGUAUGGCACAUGAGGAUCACCCAUGUGCGAGGACCGGUACGGCCGCCACUCGGUCCUGGGAACUUAUUACUAUACAUUAAUG [XTryp A #18]”, the “apparent KD of MS2 coat protein” value reads like this: (input ligand: arginine 13.2 mM) 11.9 nM; under setting [1], 16.9 nM; under setting [2], 13.1 nM.
For “AAUGUAUUCCACAUGAGGAUCACCCAUGUGCGAGGACCGGUACGGCCGCCACUCGGUGUUGGGAUCUGUUCUGAAUACAUUAAUG [XTryp A #23]”, the “apparent KD of MS2 coat protein” value (input ligand: arginine 13.2 mM) was 30.8 nM, the “apparent KD of MS2 coat protein” value under setting [1] came to 37.5 nM and the “apparent KD of MS2 coat protein” value under setting [2] amounted to 40.3 nM.
As to “AAUGUGAAGGCGGCCGCCACUGAUAAUAGACAUGAGGAUCACCCAUGUAUAAAUCCUCAAUAAGACAGGACCGGGCCAUCUACGU [#25 Exclusion Tryptophan B]”, the “apparent KD of MS2 coat protein” value runs as follows: (input ligand: arginine 13.2 mM) 59 nM; under setting [1], 134 nM; under setting [2], 122 nM.
For the sequence “AAUUAAUUAACCGAUACCAGCCAACCAAAACAUGAGGAUCACCCAUGUAAGAAGAAGGGUGGCCCUUGGCAGCGGUUAAUUAAUU”, the “apparent KD of MS2 coat protein” value by setting is: (input ligand: arginine 13.2 mM) 31.4 nM; under setting [1], 16.7 nM; under setting [3], 30.5 nM.
